The supplement of paper PMC9112550, “Optimization of the antimicrobial peptide Bac7 by deep mutational scanning” (BMC Biology, 2022)

Test system: Escherichia coli TOP10
Test: shrunken log2 fold change of peptide-encoding DNA abundance (4.5 h post-induction vs induction); higher = less antimicrobial activity (less host growth inhibition)
Settings: time post-induction: 4.5 h; library: site-saturation at positions 5, 18, 19, 20
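Also: peptides expressed intracellularly from a pBAD plasmid library in pooled LB shake-flask culture, induced with 0.3% L-arabinose, DNA abundance read by NGS, three biological replicates, DESeq2 with apeglm shrinkage.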

Sequence	shrunken log2 fold change
RRIRGRPPRLPRPRPRPVQDPRP	0.197
RRIRGRPPRLPRPRPRPVQHPRP	0.542
RRIRGRPPRLPRPRPRPVQTPRP	0.626
RRIRGRPPRLPRPRPRPVQWPRP	0.171
RRIRGRPPRLPRPRPRPVRFPRP	0.685
RRIRGRPPRLPRPRPRPVTWPRP	0.425
RRIRGRPPRLPRPRPRPVWYPRP	0.196
RRIRGRPPRLPRPRPRPVYEPRP	0.271
RRIRGRPPRLPRPRPRPVYPPRP	-0.129
RRIRGRPPRLPRPRPRPVYWPRP	1.38
RRIRGRPPRLPRPRPRPWAMPRP	0.483
RRIRGRPPRLPRPRPRPWANPRP	0.0528
RRIRGRPPRLPRPRPRPWCFPRP	0.212
RRIRGRPPRLPRPRPRPWCTPRP	-0.0466
RRIRGRPPRLPRPRPRPWDRPRP	-0.141
RRIRGRPPRLPRPRPRPWEEPRP	-0.0105
RRIRGRPPRLPRPRPRPWELPRP	0.136
RRIRGRPPRLPRPRPRPWFHPRP	-0.121
RRIRGRPPRLPRPRPRPWGAPRP	0.444
RRIRGRPPRLPRPRPRPWGEPRP	0.285
RRIRGRPPRLPRPRPRPWHWPRP	0.424
RRIRGRPPRLPRPRPRPWIRPRP	-0.164
RRIRGRPPRLPRPRPRPWKVPRP	-0.00197
RRIRGRPPRLPRPRPRPWLAPRP	0.0824
RRIRGRPPRLPRPRPRPWLHPRP	0.106

Sequence	shrunken log2 fold change
RRIRGRPPRLPRPRPRPWLWPRP	0.0131
RRIRGRPPRLPRPRPRPWMYPRP	-0.0352
RRIRGRPPRLPRPRPRPWPVPRP	0.674
RRIRGRPPRLPRPRPRPWQDPRP	0.00455
RRIRGRPPRLPRPRPRPWRFPRP	0.425
RRIRGRPPRLPRPRPRPWVDPRP	0.308
RRIRGRPPRLPRPRPRPWVHPRP	-0.0245
RRIRGRPPRLPRPRPRPWVLPRP	0.222
RRIRGRPPRLPRPRPRPWVWPRP	0.368
RRIRGRPPRLPRPRPRPYATPRP	1.81
RRIRGRPPRLPRPRPRPYCDPRP	0.226
RRIRGRPPRLPRPRPRPYDLPRP	-0.511
RRIRGRPPRLPRPRPRPYEPPRP	0.0834
RRIRGRPPRLPRPRPRPYGSPRP	-0.303
RRIRGRPPRLPRPRPRPYGVPRP	-0.128
RRIRGRPPRLPRPRPRPYIKPRP	-0.164
RRIRGRPPRLPRPRPRPYLHPRP	-0.385
RRIRGRPPRLPRPRPRPYMEPRP	-0.164
RRIRGRPPRLPRPRPRPYNNPRP	-0.321
RRIRGRPPRLPRPRPRPYPEPRP	0.0556
RRIRGRPPRLPRPRPRPYPWPRP	0.155
RRIRGRPPRLPRPRPRPYQTPRP	0.0825
RRIRGRPPRLPRPRPRPYRGPRP	-0.186
RRIRGRPPRLPRPRPRPYRMPRP	-0.245
RRIRGRPPRLPRPRPRPYSRPRP	-0.024

Sequence	shrunken log2 fold change
RRIRGRPPRLPRPRPRPYSWPRP	0.187
RRIRGRPPRLPRPRPRPYWVPRP	-0.178
RRIRGRPPRLPRPRPRPYYNPRP	-0.48
RRIRHRPPRLPRPRPRPAAEPRP	0.334
RRIRHRPPRLPRPRPRPADDPRP	0.083
RRIRHRPPRLPRPRPRPADIPRP	-0.102
RRIRHRPPRLPRPRPRPADKPRP	-0.245
RRIRHRPPRLPRPRPRPAEMPRP	-0.01
RRIRHRPPRLPRPRPRPAEPPRP	0.19
RRIRHRPPRLPRPRPRPAEYPRP	0.034
RRIRHRPPRLPRPRPRPAFFPRP	0.0438
RRIRHRPPRLPRPRPRPAGLPRP	0.269
RRIRHRPPRLPRPRPRPAHDPRP	0.0776
RRIRHRPPRLPRPRPRPAITPRP	-0.0845
RRIRHRPPRLPRPRPRPAKRPRP	-0.132
RRIRHRPPRLPRPRPRPAMIPRP	-0.0435
RRIRHRPPRLPRPRPRPAMMPRP	-0.114
RRIRHRPPRLPRPRPRPANIPRP	-0.291
RRIRHRPPRLPRPRPRPANWPRP	0.135
RRIRHRPPRLPRPRPRPAQQPRP	-0.0312
RRIRHRPPRLPRPRPRPAQRPRP	0.359
RRIRHRPPRLPRPRPRPATDPRP	-0.185
RRIRHRPPRLPRPRPRPATWPRP	0.222
RRIRHRPPRLPRPRPRPAWKPRP	-0.0109
RRIRHRPPRLPRPRPRPAYEPRP	0.0981

Sequence	shrunken log2 fold change
RRIRHRPPRLPRPRPRPAYKPRP	-0.102
RRIRHRPPRLPRPRPRPAYLPRP	-0.323
RRIRHRPPRLPRPRPRPAYQPRP	-0.0802
RRIRHRPPRLPRPRPRPAYYPRP	-0.624
RRIRHRPPRLPRPRPRPCACPRP	-0.176
RRIRHRPPRLPRPRPRPCAGPRP	-0.195
RRIRHRPPRLPRPRPRPCAVPRP	-0.0171
RRIRHRPPRLPRPRPRPCCAPRP	-0.0125
RRIRHRPPRLPRPRPRPCCDPRP	-0.228
RRIRHRPPRLPRPRPRPCCFPRP	-0.245
RRIRHRPPRLPRPRPRPCDSPRP	-0.00145
RRIRHRPPRLPRPRPRPCFEPRP	-0.114
RRIRHRPPRLPRPRPRPCHAPRP	-0.0924
RRIRHRPPRLPRPRPRPCILPRP	-0.134
RRIRHRPPRLPRPRPRPCKPPRP	-0.314
RRIRHRPPRLPRPRPRPCKQPRP	-0.0199
RRIRHRPPRLPRPRPRPCLKPRP	-0.16
RRIRHRPPRLPRPRPRPCLPPRP	-0.041
RRIRHRPPRLPRPRPRPCLRPRP	0.0119
RRIRHRPPRLPRPRPRPCNCPRP	0.0668
RRIRHRPPRLPRPRPRPCPPPRP	-0.845
RRIRHRPPRLPRPRPRPCTEPRP	-0.138
RRIRHRPPRLPRPRPRPCTFPRP	-0.456
RRIRHRPPRLPRPRPRPCVHPRP	-0.00151
RRIRHRPPRLPRPRPRPCVLPRP	-0.14

Sequence	shrunken log2 fold change
RRIRHRPPRLPRPRPRPCWFPRP	-0.499
RRIRHRPPRLPRPRPRPCWGPRP	-0.137
RRIRHRPPRLPRPRPRPCWTPRP	-0.237
RRIRHRPPRLPRPRPRPCYHPRP	-0.00149
RRIRHRPPRLPRPRPRPCYSPRP	-0.0983
RRIRHRPPRLPRPRPRPCYYPRP	-0.258
RRIRHRPPRLPRPRPRPDAFPRP	-0.0702
RRIRHRPPRLPRPRPRPDAIPRP	-0.025
RRIRHRPPRLPRPRPRPDDIPRP	-0.0131
RRIRHRPPRLPRPRPRPDDSPRP	-0.01
RRIRHRPPRLPRPRPRPDEAPRP	-0.0728
RRIRHRPPRLPRPRPRPDEPPRP	0.197
RRIRHRPPRLPRPRPRPDFFPRP	-0.26
RRIRHRPPRLPRPRPRPDGIPRP	-0.0529
RRIRHRPPRLPRPRPRPDGSPRP	-0.0231
RRIRHRPPRLPRPRPRPDGTPRP	-0.0362
RRIRHRPPRLPRPRPRPDHAPRP	0.0557
RRIRHRPPRLPRPRPRPDKDPRP	-0.44
RRIRHRPPRLPRPRPRPDLGPRP	0.0527
RRIRHRPPRLPRPRPRPDLHPRP	-0.0566
RRIRHRPPRLPRPRPRPDMWPRP	-0.175
RRIRHRPPRLPRPRPRPDNTPRP	-0.0928
RRIRHRPPRLPRPRPRPDNWPRP	-0.335
RRIRHRPPRLPRPRPRPDPAPRP	0.189
RRIRHRPPRLPRPRPRPDPIPRP	0.0172

Sequence	shrunken log2 fold change
RRIRHRPPRLPRPRPRPDQPPRP	0.183
RRIRHRPPRLPRPRPRPDSLPRP	-0.0392
RRIRHRPPRLPRPRPRPDSMPRP	0.0959
RRIRHRPPRLPRPRPRPDSSPRP	0.00209
RRIRHRPPRLPRPRPRPDVMPRP	-0.374
RRIRHRPPRLPRPRPRPDYDPRP	-0.278
RRIRHRPPRLPRPRPRPDYTPRP	-0.00281
RRIRHRPPRLPRPRPRPEDEPRP	0.0969
RRIRHRPPRLPRPRPRPEGKPRP	0.082
RRIRHRPPRLPRPRPRPEGLPRP	0.00161
RRIRHRPPRLPRPRPRPEIRPRP	0.0924
RRIRHRPPRLPRPRPRPELEPRP	-0.0141
RRIRHRPPRLPRPRPRPEMTPRP	0.0257
RRIRHRPPRLPRPRPRPENNPRP	-0.304
RRIRHRPPRLPRPRPRPEPDPRP	0.257
RRIRHRPPRLPRPRPRPEPPPRP	0.545
RRIRHRPPRLPRPRPRPEQMPRP	0.023
RRIRHRPPRLPRPRPRPERSPRP	0.0418
RRIRHRPPRLPRPRPRPESIPRP	-0.107
RRIRHRPPRLPRPRPRPETNPRP	0.0688
RRIRHRPPRLPRPRPRPEYLPRP	0.0871
RRIRHRPPRLPRPRPRPFAGPRP	-0.205
RRIRHRPPRLPRPRPRPFAHPRP	0.186
RRIRHRPPRLPRPRPRPFARPRP	-0.107
RRIRHRPPRLPRPRPRPFCLPRP	-0.262
